Experimental data as given in article PMC9400459 (Science (New York, N.y.), 2022).

Target: SARS-CoV-2 receptor binding domain (SARS-CoV-2, UniProt P0DTC2)
Assay: cell-based or functional assay

B1: S2K146 human monoclonal antibody (antibody, V domains shown)
VH: QVQLVESGGVVVQPGGSLRLSCAASGFTFHDHTMHWVRQAPGKGLEWVSLITWNGGTIHYSDSVKGRFTISRDNSKNSLYLQMNSLRTEDTALYYCAKDLGRGGWYLPSDAWGQGTLVTVSS
VL: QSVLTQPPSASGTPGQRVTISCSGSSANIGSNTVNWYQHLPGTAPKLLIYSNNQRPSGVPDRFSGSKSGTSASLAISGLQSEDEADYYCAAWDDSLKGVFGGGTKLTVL
- IC50 of neutralisation of authentic SARS-CoV-2 (isolate USA-WA1/2020, lineage A): 10 ng/mL
